Results: patent US20020088015A1

Target: GAL4-WT1 (WT1 fused to the DNA-binding domain of GAL4) (UniProt P04386)
Test: cell-based or functional assay

## par-4 expressed from pCMV-par-4 in transfected cells
  WT1-mediated transcriptional repression of pGAL4TKCAT (CAT assay): 3 fold
